Test results as given in patent US20200188499A1.

How the values were obtained:
[1] = target: VARITECT (human polyclonal antibodies directed against Varicella Zoster antigens); experiment: inhibition ELISA with VARITECT; gE content divided by titer of the standard; lyophilised gE
[2] = target: VARITECT (human polyclonal antibodies directed against Varicella Zoster antigens); experiment: inhibition ELISA with VARITECT; gE content by ELISA divided by Lowry protein; lyophilised gE
[3] = target: VARITECT (human polyclonal antibodies directed against Varicella Zoster antigens); experiment: inhibition ELISA with VARITECT; gE content divided by titer of the standard; co-lyophilised gE/AS01
[4] = target: VARITECT (human polyclonal antibodies directed against Varicella Zoster antigens); experiment: inhibition ELISA with VARITECT; gE content divided by titer of the standard; control VZV gE vaccine
[5] = target: VARITECT (human polyclonal antibodies directed against Varicella Zoster antigens); experiment: inhibition ELISA with VARITECT; gE content by ELISA divided by Lowry protein; co-lyophilised gE/AS01
[6] = target: VARITECT (human polyclonal antibodies directed against Varicella Zoster antigens); experiment: inhibition ELISA with VARITECT; gE content by ELISA divided by Lowry protein; control VZV gE vaccine
[7] = target: VARITECT (human polyclonal antibodies directed against Varicella Zoster antigens); experiment: inhibition ELISA with VARITECT; gE content by ELISA divided by Lowry protein; gE before lyophilisation
[8] = target: VARITECT (human polyclonal antibodies directed against Varicella Zoster antigens); experiment: inhibition ELISA with VARITECT; gE content by ELISA divided by Lowry protein; sample gE/AS01 before lyophilisation

Substance: VZV gE antigen (truncated form of the Varicella Zoster Virus glycoprotein E) (from UniProt P09259 31-546)
- Potency [1]: 0.98
- Antigenic activity (gE/prot) [2]: 1.01
- Potency [3]: 1.02
- Potency [4]: 0.92
- Antigenic activity (gE/prot) [5]: 0.99
- Antigenic activity (gE/prot) [6]: 1.15
- Antigenic activity (gE/prot) [7]: 1.05
- Antigenic activity (gE/prot) [8]: 0.96
